Patent US20240033359A1 (Takeda / Millennium, published 2024)

How the values were obtained:
[1] = biological target: T1, GCC on CT26 cells; assay: flow cytometry on CT26 cells, dose response
T1 construct: whole, on cells; That the target is GCC is inferred from this context
Protocol: Binding of single domain antibodies to CT26 cells was measured using flow cytometry. CT26 cells were incubated with serially diluted VH and fluorescence was measured by flow cytometry. Anti-GCC VH antibodies were confirmed for binding to CT26 cells by a FACS dose response assay to obtain an on cell binding EC50 (nM) as shown in Table 4.

[2] = biological target: T2, human guanylyl cyclase C (GCC), as used in the Octet binding assay (human, UniProt P25092 24-430, limits assumed); assay: Octet BLI, 1:1 model
T2 construct: also called STAR; GUC2C
Protocol: Single domain heavy chain antibodies (VH) were generated that specifically target human GCC (e.g., anti-GCC binders provided in Tables 1-3). […] Binding kinetics were determined using an Octet binding assay. These were measured in real-time bio-layer interferometer based biosensor Octet (ForteBio). All the binding studies were performed in HBS-ET Octet kinetics buffer. Biosensors were always washed in Octet kinetics buffer in between different steps. A seven point, two-fold dilution series of each VH was made. The contact time for each of the association steps was 300 seconds and the dissociation step was varied between 400-600 seconds. Kinetic association (ka) and dissociation (kd) rate constants were determined by processing and fitting the data to a 1:1 binding model using ForteBio Analysis software.

T2 sequence (P25092 24-430 limits assumed): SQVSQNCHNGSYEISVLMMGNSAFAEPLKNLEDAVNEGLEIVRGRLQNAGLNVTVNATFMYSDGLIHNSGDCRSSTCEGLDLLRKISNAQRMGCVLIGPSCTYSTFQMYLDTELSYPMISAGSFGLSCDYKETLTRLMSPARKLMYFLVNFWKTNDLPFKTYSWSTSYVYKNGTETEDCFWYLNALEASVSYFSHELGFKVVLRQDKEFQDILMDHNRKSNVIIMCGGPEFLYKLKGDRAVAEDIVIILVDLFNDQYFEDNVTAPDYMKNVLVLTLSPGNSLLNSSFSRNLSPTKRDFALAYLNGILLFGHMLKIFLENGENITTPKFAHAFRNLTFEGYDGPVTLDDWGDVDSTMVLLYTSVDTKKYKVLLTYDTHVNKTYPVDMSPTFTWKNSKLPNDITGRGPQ
T1 sequence (Q3UWA6 whole entry): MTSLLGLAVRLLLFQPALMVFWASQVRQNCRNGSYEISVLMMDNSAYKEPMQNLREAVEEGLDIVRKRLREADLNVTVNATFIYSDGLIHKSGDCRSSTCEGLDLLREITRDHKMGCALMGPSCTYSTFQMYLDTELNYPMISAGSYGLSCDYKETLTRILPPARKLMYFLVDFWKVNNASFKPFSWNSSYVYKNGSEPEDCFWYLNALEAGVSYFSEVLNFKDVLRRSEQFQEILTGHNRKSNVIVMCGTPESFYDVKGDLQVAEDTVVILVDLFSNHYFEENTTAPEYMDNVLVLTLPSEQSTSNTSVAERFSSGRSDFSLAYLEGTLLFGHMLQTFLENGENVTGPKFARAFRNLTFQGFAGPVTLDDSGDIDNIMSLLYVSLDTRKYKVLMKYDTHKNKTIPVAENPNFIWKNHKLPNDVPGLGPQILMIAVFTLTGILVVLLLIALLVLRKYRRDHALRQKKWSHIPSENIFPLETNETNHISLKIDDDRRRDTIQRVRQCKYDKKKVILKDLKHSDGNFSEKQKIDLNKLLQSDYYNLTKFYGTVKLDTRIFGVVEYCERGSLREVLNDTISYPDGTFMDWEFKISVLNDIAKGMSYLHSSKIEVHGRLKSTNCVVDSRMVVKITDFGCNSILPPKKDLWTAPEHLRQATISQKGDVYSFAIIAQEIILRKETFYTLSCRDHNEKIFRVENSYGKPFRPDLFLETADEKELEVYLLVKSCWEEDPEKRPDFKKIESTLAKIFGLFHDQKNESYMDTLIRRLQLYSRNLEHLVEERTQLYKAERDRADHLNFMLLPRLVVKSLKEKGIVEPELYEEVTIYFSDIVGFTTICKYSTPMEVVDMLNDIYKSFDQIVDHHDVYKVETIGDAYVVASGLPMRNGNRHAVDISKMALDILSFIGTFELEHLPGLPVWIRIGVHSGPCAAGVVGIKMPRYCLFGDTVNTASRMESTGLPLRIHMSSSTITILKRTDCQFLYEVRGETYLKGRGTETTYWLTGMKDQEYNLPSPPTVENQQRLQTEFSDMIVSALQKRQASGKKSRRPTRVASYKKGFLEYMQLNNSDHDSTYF

B1: V1 anti-GCC single domain VH antibody (VHH)
VHH: QVQLQESGPGLVKPSETLSLTCTVSGASISHYYWSWFRQPAGKGLEWIGRIYPSGSTSYNPSLKSRVAMSVDTPKNQFSLNLSSVTAADTAVYYCARDRSTGWSEWNSDLWGRGTLVTVSS
notes: Human heavy chain variable single domain antibody (VH only, no light chain), tested as recombinant purified VH; also called V1 VH
An EC50 [1] of 0.72 nM, a Kd [2] of 0.329 nM and a koff [2] of 0.000208 s⁻¹ were found for B1 in this work.

B2: V51 anti-GCC single domain VH antibody (VHH)
VHH: EVQLVESGGGLVQPGGSLRLSCAASGFTFSRYWMTWVRQAPGKGLEWVAKIRHDGGEKYYADSVKGRFTISRDNAKNSLYLQMNSLRAEDTAVYYCTRDYNKDYWGQGTLVTVSS
notes: Human heavy chain variable single domain antibody (VH only), tested as recombinant purified VH; No tags are stated
A Kd [2] of 9.54 nM and a koff [2] of 0.00185 s⁻¹ were found for B2 in this work.

B3: V5 anti-GCC single domain VH antibody (VHH)
VHH: QVQLVESGGGLVQPGGSLRLSCTASGFTFSRYWMSWVRQAPGKGLEWVAKIRHDGGEKYYVDSVKGRFTISRDNAKNSLYLQMNSLRAEDTAVYYCATDYTRDVWGQGTAVTVSS
notes: as for B2
An EC50 [1] of 1.52 nM, a Kd [2] of 7.71 nM and a koff [2] of 0.000719 s⁻¹ were found for B3 in this work.

B4: V36 anti-GCC single domain VH antibody (VHH)
VHH: EVQLVESGGGLAQPGGSLRLSCAASGFTFSRYWMTWVRQAPGGRLEWVAKIKYDGSEKYYADSVKGRFTISRDNAKNSLYLQMDSLRAEDTAVYYCTRDYNKDYWGQGTLVTVSS
notes: as for B2
A Kd [2] of 105 nM and a koff [2] of 0.0035 s⁻¹ were found for B4 in this work.

B5: V48 anti-GCC single domain VH antibody (VHH)
VHH: EVQLVESGGGLVQPGGSLRLTCAASGFTFSRYWMTWVRQAPGKGLEWVAKIRHDGGEKYYPDSVKGRFTVSRDNAKNSLYLQMDNLRAEDTAMYYCTRDYNKDLWGQGTLVTVSS
notes: as for B2
An EC50 [1] of 1.01 nM, a Kd [2] of 1.38 nM and a koff [2] of 0.000341 s⁻¹ were found for B5 in this work.
